Experimental findings from PMC4319893, “Targeting Protein-Protein Interactions with Trimeric Ligands: High Affinity Inhibitors of the MAGUK Protein Family” (PLoS ONE, 2015) are described below.

The experiment addresses PSD-95 PDZ3 (human). The experiment is described as follows: fluorescence polarisation; truncation study of CRIPT C-terminal peptides on PSD-95 PDZ3 and PSD-95 FL (S1 Table); probe not told. Background: Fluorescence polarisation rises when a labelled molecule tumbles more slowly, as on binding a larger partner.

On to IETAV, for which the affinity is greater than 50 µM.
